Columns and labels:
[1] = target: oligomeric synthetic human Aβ1-42 preparation
[2] = target: monomeric synthetic human Aβ1-42 peptide

B1: recombinant NIa (nuclear inclusion a) protease of Turnip mosaic virus (TuMV), purified from E. coli (protein)
chain: SNSMFRGLRDYNPISNNICHLTNVSDGASNSLYGVGFGPLILTNRHLFERNNGELVIKSRHGEFVIKNTTQLHLLPIPDRDLLLIRLPKDIPPFPQKLGFRQPEKGERICMVGSNFQTKSITSVVSETSTIMPVENSQFWKHWISTKDGQCGSPMVSTKDGKILGLHSLANFQNSINYFAAFPDDFAEKYLHTIEAHEWVKHWKYNTSAISWGSLNIQASQPSGLFKVSKLISDLDSTAVYAQ
[1]
  oligomeric Aβ level with NIa pre-incubated with NEM, Western blot (6E10): This NIa-mediated reduction of oligomeric Aβ was significantly blocked by NEM
  oligomeric Aβ remaining after 3 hrs with NIa, densitometry of Western blot (6E10), relative to Aβ only: only 19% of oligomeric Aβ remained
[2]
  reduction of monomeric Aβ level, densitometry of Western blot (6E10), 3 hrs at 25 °C, without NEM: NIa reduced Aβ levels by 64% in the absence of NEM

From patent US20130108613
